In patent US20230285585A1, “TREATMENT OF PULMONARY HYPERTENSION” (PHILOGEN S.P.A., priority 2020, published 2023):

Columns and labels:
[1] = tested on: Monocrotaline (MCT) induced pulmonary hypertension (PH) in C57BL/6 mice; test: Right heart catheterization in MCT induced PH mouse model (Example 4); format: in vivo; conditions: for pressure values in the right ventricle, RVPsys (result in words): in contrast to KSF containing control immunocytokines
Excerpt: To induce Pulmonary Hypertension (PH), C57BL/6 mice (bodyweight: 25-30 g) were used. The animals were obtained from ZET facility (Zentrale Experimentelle Tierhaltung) of the University Hospital Jena (UKJ, Jena, Germany). Prior to PH induction, mice were allowed to acclimatize for at least 7 days with ad libitum access to food and water as well as controlled light/dark cycles. In this set of experiments, 50 animals were investigated divided into the following 7 experimental groups: • sham induced controls (n=10) • MCT induced PH (n=8) • MCT induced PH+MACI (n=8) • MCT induced PH+F8mIL9F8 in CrAb format (n=6) • MCT induced PH+KSFmIL9KSF in CrAb format (n=6) • MCT induced PH+F8_(IgG-HC4)-mIL9 (n=6) • MCT induced PH+KSF_(IgG-HC4)-mIL9 (n=6)
For PH induction, the Monocrotaline (MCT, Carl Roth, Germany) method was used.
The sham induced controls were injected with 30 μl NaCl not containing MCT at day 1 (single dose; intraperitoneally, i.p.). […] The other 6 experimental groups were injected with MCT (single dose; intraperitoneally, i.p.; 60 mg/kg body weight; volume 30 μl). Animals in the MCT induced PH+MACI group received the drug (Macitentan, Actelion Pharmaceuticals Ltd.) from day 14 to day 28 (once daily; per os; 15 mg/kg body weight).
Animals in the MCT induced PH+F8mIL9F8 in CrAb format group received F8mIL9F8 3 times on days 14, 16 and 18 (intravenously, i.v.; 200 μg/injection; volume 154 μl). Animals in the MCT induced PH+KSFmIL9KSF in CrAb format group received KSFmIL9KSF 3 times on days 14, 16 and 18 (intravenously, i.v.; 198 μg/injection; volume 182 μl).
Animals in the MCT induced PH+F8_(IgG-HC4)-mIL9 group received F8_(IgG-HC4)-mIL9 3 times on days 14, 16 and 18 (intravenously, i.v.; 261 μg/injection; volume 137 μl). Animals in the MCT induced PH+KSF_(IgG-HC4)-mIL9 group received KSF_IgG-HC4mIL9 3 times on days 14, 16 and 18 (intravenously, i.v.; 258 μg/injection; volume 161 μl).
On day 28 after MCT injection, mice of all experimental groups were deeply anesthetized with a single dose of 100 mg/kg body weight ketamine and 10 mg/kg body weight Xylazin in approximately 60 μl each administered i.p.
Right heart catheterization using a 1.4 F micro conductance pressure-volume catheter (Model SPR-839; Millar Instruments Inc; PowerLab system, ADInstruments Ltd., Oxford, UK) was performed via the right vena jugularis interna to measure the systolic right ventricular pressure and thereby verify the success of the experimental setting. Mice were then sacrificed in deep anesthesia and analgesia to carry out cardiac blood collection after thoracotomy and to harvest the organs.
(§1) Statistical analyses were performed using IBM SPSS statistical software, version 25.0 (IBM SPSS Statistics for Windows. Armonk, N.Y., USA). Data are expressed as mean±standard deviation. […]

[2] = tested on: Monocrotaline (MCT) induced pulmonary hypertension (PH) in C57BL/6 mice; test: Echocardiographic assessment in MCT induced PH mouse model (Example 4); format: in vivo; conditions: in contrast to KSF containing control immunocytokines
Protocol: To induce Pulmonary Hypertension (PH), C57BL/6 mice (bodyweight: 25-30 g) were used. The animals were obtained from ZET facility (Zentrale Experimentelle Tierhaltung) of the University Hospital Jena (UKJ, Jena, Germany). Prior to PH induction, mice were allowed to acclimatize for at least 7 days with ad libitum access to food and water as well as controlled light/dark cycles. […]
Echocardiographic assessment was performed on day 28 using the Vevo 770 Rodent-Ultrasound-System, Visual Sonic, Canada, 17 MHz probe RMV176. […] Body temperature and respiratory rate were continuously monitored. All surrogate parameters of right ventricular (RV) morphology and function were assessed, among others, RV basal and medial diameters (in mm), RV length (in mm), tricuspid annular plane systolic excursion (TAPSE, in mm), right atrial area (RA area, in mm^2) or main pulmonary artery diameter (MPA, in mm).
as §1

[3] = molecular target: T1, recombinant fibronectin 11A12 domain (EDA) (Homo sapiens, UniProt P02751); test: Biacore surface plasmon resonance binding analysis; conditions: SPR, BIAcore X100, CM5 chip coated with recombinant fibronectin 11A12 domain
T1 construct: recombinant fibronectin 11A12 domain
T1 sequence (P02751 1629-1905 limits assumed): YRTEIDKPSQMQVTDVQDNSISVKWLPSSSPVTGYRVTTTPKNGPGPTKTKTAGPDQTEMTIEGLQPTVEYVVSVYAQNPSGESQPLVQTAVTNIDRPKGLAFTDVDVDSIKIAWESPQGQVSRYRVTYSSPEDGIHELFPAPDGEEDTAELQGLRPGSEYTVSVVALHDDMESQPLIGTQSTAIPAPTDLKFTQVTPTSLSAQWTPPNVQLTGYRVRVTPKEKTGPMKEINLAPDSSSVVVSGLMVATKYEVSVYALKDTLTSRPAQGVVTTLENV
Protocol: Binding affinity was determined by surface plasmon resonance using a BIAcore X100 instrument using a CM5 chip coated with recombinant fibronectin 11A12 domain. Samples were injected as serial-dilution, using a concentration range from […] to 125 nM.

Row | Molecule | apparent KD [3] | other results
1 | F8(IgG4-HC)-mIL9: two murine IL9 moieties fused to C-termini of heavy chains of F8 IgG4; SEQ ID NOs: 61 and 62 |  | treatment effects relative to MACI (result in words) [1]: improved compared with the effects achieved by MACI; pressure values in the right ventricle, RVPsys (result in words) ([1]; listed as F8_(IgG-HC4)-mIL9): significantly reduced; pressure values in the right ventricle, RVPsys (result in words) ([1]; listed as IgG-HC4mIL9): significantly reduce; echocardiographic signs of right ventricular load and dysfunction (result in words) [2]: significantly improved a variety
2 | F8(db)-hIL9: human IL9 conjugated to the C-terminus of the F8 diabody; SEQ ID NO: 22 | in the nM range | 
3 | F8(scFv)-hIL9-F8(scFv): human IL9 conjugated at N- and C-terminus to an F8 scFv, CrAb format; SEQ ID NO: 18 | in the nM range | 
4 | hIL9-F8(db): human IL9 conjugated to the N-terminus of the F8 diabody; SEQ ID NO: 23 | in the nM range | 
5 | F8(db)-mIL9: murine IL9 conjugated to the C-terminus of the F8 diabody; SEQ ID NO: 20 (protein, of murine IL9 conjugated to the C-terminus of the F8 diabody (F8(Db)-mIL9)) EVQLLESGGGLVQPGGSLRLSCAASGFTFSLFTMSWVRQAPGKGLEWVSAISGSGGSTYYADSVKGRFTISRDNSKNTLYLQMNSLRAEDTAVYYCAKSTHLYLFDYWGQGTLVTVSSGGSGGEIVLTQSPGTLSLSPGERATLSCRASQSVSMPFLAWYQQKPGQAPRLLIYGASSRATGIPDRFSGSGSGTDFTLTISRLEPEDFAVYYCQQMRGRPPTFGQGTKVEIKGGGGSGGGGSGGGGSQRCSTTWGIRDTNYLIENLKDDPPSKCSCSGNVTSCLCLSVPTDDCTTPCYREGLLQLTNATQKSRLLPVFHRVKRIVEVLKNITCPSFSCEKPCNQTMAGNTLSFLKSLLGTFQKTEMQRQKSRP | in the nM range | 
6 | mIL9-F8(db): murine IL9 conjugated to the N-terminus of the F8 diabody; SEQ ID NO: 21 (protein, murine IL9 conjugated to the N-terminus of the F8 diabody (mIL9-F8(Db))) QRCSTTWGIRDTNYLIENLKDDPPSKCSCSGNVTSCLCLSVPTDDCTTPCYREGLLQLTNATQKSRLLPVFHRVKRIVEVLKNITCPSFSCEKPCNQTMAGNTLSFLKSLLGTFQKTEMQRQKSRPGGGGSGGGGSGGGGSEVQLLESGGGLVQPGGSLRLSCAASGFTFSLFTMSWVRQAPGKGLEWVSAISGSGGSTYYADSVKGRFTISRDNSKNTLYLQMNSLRAEDTAVYYCAKSTHLYLFDYWGQGTLVTVSSGGSGGEIVLTQSPGTLSLSPGERATLSCRASQSVSMPFLAWYQQKPGQAPRLLIYGASSRATGIPDRFSGSGSGTDFTLTISRLEPEDFAVYYCQQMRGRPPTFGQGTKVEIK | in the nM range | 
